Biological target: NKG2D ligands expressed on YAC-1 cells
Assay: cell-based or functional assay

ADCC by thioglycollate-elicited macrophages (percent of target cells): 55%
complement-dependent lysis of YAC-1 cells: 80%
B1: murine NKG2D-Fc fusion protein (IgG2a-IEGR-NKG2D construct) (Fc fusion, mouse, not shown: a dimerising Fc or GST)
chain: IEGRETFQPVLCNKEVPVSSREGYCGPCPNNWICHRNNCYQFFNEEKTWNQSQASCLSQNSSLLKIYSKEEQDFLKLVKSYHWMGLVQIPANGSWQWEDGSSLSYNQLTLVEIPKGSCAVYGSSFKAYTEDCANLNTYICMKRAV

From patent US20110311535A1
